± gives the standard deviation of the averaged measurements.

The text below walks through data of the supplement of paper PMC11246515.

A short description of this data set: total protein half-life in vivo (active degradation + dilution); higher = more stable protein.
Where [1] appears, read: E. coli NCM3722 delta-clpP delta-lon delta-hslV, growth: N-lim chemostat, doubling time 6 h.
[2] abbreviates: E. coli NCM3722 delta-clpP, growth: N-lim chemostat, doubling time 6 h.
Setting [3] is: E. coli NCM3722 delta-hslV, growth: N-lim chemostat, doubling time 6 h.
Setting [4] is: E. coli NCM3722 delta-lon, growth: N-lim chemostat, doubling time 6 h.
The mark [5] stands for this setting: E. coli NCM3722 delta-smpB, growth: N-lim chemostat, doubling time 6 h.
Setting [6] is: wild type E. coli NCM3722, growth: C-lim chemostat, doubling time 3 h.
Setting [7] is: wild type E. coli NCM3722, growth: C-lim chemostat, doubling time 6 h.
Setting [8] is: wild type E. coli NCM3722, growth: C-lim chemostat, doubling time 12 h.
Setting [9] is: wild type E. coli NCM3722, growth: N-lim chemostat, doubling time 6 h.
Setting [10] is: wild type E. coli NCM3722, growth: N-lim chemostat, doubling time 12 h.
Where [11] appears, read: wild type E. coli NCM3722, growth: P-lim chemostat, doubling time 6 h.
[12] abbreviates: wild type E. coli NCM3722, growth: P-lim chemostat, doubling time 12 h.

Regarding “MTEPLTETPELSAKYAWFFDLDGTLAEIKPHPDQVVVPDNILQGLQLLATASDGALALISGRSMVELDALAKPYRFPLAGVHGAERRDINGKTHIVHLPDAIARDISVQLHTVIAQYPGAELEAKGMAFALHYRQAPQHEDALMTLAQRITQIWPQMALQQGKCVVEIKPRGTSKGEAIAAFMQEAPFIGRTPVFLGDDLTDESGFAVVNRLGGMSVKIGTGATQASWRLAGVPDVWSWLEMITTALQQKRENNRSDDYESFSRSI”, the “total protein half-life in vivo” value turned out to be 5.34 ± 2.1 h under setting [1]; 3.13 ± 0.27 h under setting [2]; 2.4 ± 0.1 h under setting [3]; 2.67 ± 0.028 h under setting [4]; 2.32 ± 0.11 h under setting [5]; 2.55 h under setting [6]. The “total protein half-life in vivo” value runs as follows: under setting [7], 4.3 ± 0.26 h; under setting [8], 6.12 ± 0.22 h; under setting [9], 2.5 ± 0.13 h; under setting [10], 3.59 ± 0.55 h; under setting [11], 3.2 ± 1 h; under setting [12], 6.94 ± 0.087 h.

“MSFDIAKYPTLALVDSTQELRLLPKESLPKLCDELRRYLLDSVSRSSGHFASGLGTVELTVALHYVYNTPFDQLIWDVGHQAYPHKILTGRRDKIGTIRQKGGLHPFPWRGESEYDVLSVGHSSTSISAGIGIAVAAEKEGKNRRTVCVIGDGAITAGMAFEAMNHAGDIRPDMLVILNDNEMSISENVGALNNHLAQLLSGKLYSSLREGGKKVFSGVPPIKELLKRTEEHIKGMVVPGTLFEELGFNYIGPVDGHDVLGLITTLKNMRDLKGPQFLHIMTKKGRGYEPAEKDPITFHAVPKFDPSSGCLPKSSGGLPSYSKIFGDWLCETAAKDNKLMAITPAMREGSGMVEFSRKFPDRYFDVAIAEQHAVTFAAGLAIGGYKPIVAIYSTFLQRAYDQVLHDVAIQKLPVLFAIDRAGIVGADGQTHQGAFDLSYLRCIPEMVIMTPSDENECRQMLYTGYHYNDGPSAVRYPRGNAVGVELTPLEKLPIGKGIVKRRGEKLAILNFGTLMPEAAKVAESLNATLVDMRFVKPLDEALILEMAASHEALVTVEENAIMGGAGSGVNEVLMAHRKPVPVLNIGLPDFFIPQGTQEEMRAELGLDAAGMEAKIKAWLA”: the “total protein half-life in vivo” value is, setting by setting: under setting [1], 5.82 ± 0.5 h; under setting [2], 6.08 ± 0.29 h; under setting [3], 5.79 ± 0.18 h; under setting [4], 5.92 ± 0.57 h; under setting [5], 5.36 ± 0.085 h; under setting [6], 3.01 ± 0.11 h. For the same sequence, the “total protein half-life in vivo” value is 6.16 ± 0.82 h under setting [7]; 10.7 ± 1.4 h under setting [8]; 5.82 ± 0.11 h under setting [9]; 13.6 ± 0.63 h under setting [10]; 6.55 ± 0.58 h under setting [11]; 12.6 ± 0.56 h under setting [12].

For “MSRLVVVSNRIAPPDEHAASAGGLAVGILGALKAAGGLWFGWSGETGNEDQPLKKVKKGNITWASFNLSEQDLDEYYNQFSNAVLWPAFHYRLDLVQFQRPAWDGYLRVNALLADKLLPLLQDDDIIWIHDYHLLPFAHELRKRGVNNRIGFFLHIPFPTPEIFNALPTYDTLLEQLCDYDLLGFQTENDRLAFLDCLSNLTRVTTRSAKSHTAWGKAFRTEVYPIGIEPKEIAKQAAGPLPPKLAQLKAELKNVQNIFSVERLDYSKGLPERFLAYEALLEKYPQHHGKIRYTQIAPTSRGDVQAYQDIRHQLENEAGRINGKYGQLGWTPLYYLNQHFDRKLLMKIFRYSDVGLVTPLRDGMNLVAKEYVAAQDPANPGVLVLSQFAGAANELTSALIVNPYDRDEVAAALDRALTMSLAERISRHAEMLDVIVKNDINHWQECFISDLKQIVPRSAESQQRDKVATFPKLA”, the “total protein half-life in vivo” value under setting [1] is 5.02 ± 0.71 h; the “total protein half-life in vivo” value under setting [2] was 4.68 ± 0.38 h; the “total protein half-life in vivo” value under setting [3] is 2.95 ± 0.046 h; the “total protein half-life in vivo” value under setting [4] stood at 3.23 ± 0.4 h; the “total protein half-life in vivo” value under setting [5] stood at 2.85 ± 0.093 h; the “total protein half-life in vivo” value under setting [6] came out at 2.4 ± 0.054 h. Moreover, the “total protein half-life in vivo” value is, setting by setting: under setting [7], 3.858 ± 0.033 h; under setting [8], 6.061 ± 0.06 h; under setting [9], 3.02 ± 0.29 h; under setting [10], 4.47 ± 0.49 h; under setting [11], 3.72 ± 0.24 h; under setting [12], 6.83 ± 0.3 h.

As for “MKRNTKIALVMMALSAMAMGSTSAFAHGGHGMWQQNAAPLTSEQQTAWQKIHNDFYAQSSALQQQLVTKRYEYNALLAANPPDSSKINAVAKEMENLRQSLDELRVKRDIAMAEAGIPRGAGMGMGYGGCGGGGHMGMGHW [P0AAA9]”, the “total protein half-life in vivo” value under setting [10] was 13 h.

As to “MLRHNVPVRRDLDQIAADNGFDFHIIDNEIYWDESRAYRFTLRQIEEQIEKPTAELHQMCLEVVDRAVKDEEILTQLAIPPLYWDVIAESWRARDPSLYGRMDFAWCGNAPVKLLEYNADTPTSLYESAYFQWLWLEDARRSGIIPRDADQYNAIQERLISRFSELYSREPFYFCCCQDTDEDRSTVLYLQDCAQQAGQESRFIYIEDLGLGVGGVLTDLDDNVIQRAFKLYPLEWMMRDDNGPLLRKRREQWVEPLWKSILSNKGLMPLLWRFFPGHPNLLASWFDGEKPQIAAGESYVRKPIYSREGGNVTIFDGKNNVVDHADGDYADEPMIYQAFQPLPRFGDSYTLIGSWIVDDEACGMGIREDNTLITKDTSRFVPHYIAG”, the “total protein half-life in vivo” value under setting [1] is more than 8 h; the “total protein half-life in vivo” value under setting [2] was more than 8 h; the “total protein half-life in vivo” value under setting [3] is more than 8 h; the “total protein half-life in vivo” value under setting [4] is more than 8 h; the “total protein half-life in vivo” value under setting [8] came out at 8.91 h; the “total protein half-life in vivo” value under setting [9] was more than 8 h. For the same sequence, the “total protein half-life in vivo” value reads like this: under setting [10], more than 16 h; under setting [11], more than 8 h; under setting [12], more than 16 h.

As to “MAISIKGVNTGVIRKSNNFIALALKIKEPRNKESLFFMSVMELRDLLIALESRLHQKHKLDAAAHLQYEQARDKVIKKMAENIPEILVDELKNADINRRVNTLELTDNQGENLTFVLTLHDGSKCELVVNELQIEMLARAIIHAINNAEMRELALRITSLLDFLPLYDVDCQDNGNLEYDTYSQPEWKHNLFDHYLAVLYRFKDESGKEQFSGAVVKTREATPGKEIEAITRRMLDFSPRLKKLAGVPCQVYVRTVAANNAQPLTQDQCLRALHHLRVQSTSKTAPQAK”, the “total protein half-life in vivo” value is, setting by setting: under setting [1], 5.19 ± 0.073 h; under setting [5], 2.7 ± 0.24 h; under setting [6], 2.52 ± 0.14 h; under setting [7], 4.83 ± 1.6 h.
